Measurements published in the supplement of paper PMC9112550, “Optimization of the antimicrobial peptide Bac7 by deep mutational scanning” (BMC Biology, 2022).

Each sequence was assayed on Escherichia coli TOP10 (assay: shrunken log2 fold change of peptide-encoding DNA abundance (4.5 h post-induction vs induction); higher = less antimicrobial activity (less host growth inhibition)). Details: time post-induction: 4.5 h; library: site-saturation at positions 5, 18, 19, 20.
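Also: peptides expressed intracellularly from a pBAD plasmid library in pooled LB shake-flask culture, induced with 0.3% L-arabinose, DNA abundance read by NGS, three biological replicates, DESeq2 with apeglm shrinkage.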

Sequence	shrunken log2 fold change
RRIRDRPPRLPRPRPRPWDAPRP	0.207
RRIRQRPPRLPRPRPRPEAIPRP	-0.0935
RRIRARPPRLPRPRPRPPMEPRP	0.587
RRIRVRPPRLPRPRPRPEPQPRP	0.363
RRIRGRPPRLPRPRPRPWFMPRP	-0.384
RRIRVRPPRLPRPRPRPMACPRP	-0.147
RRIRCRPPRLPRPRPRPEIYPRP	-0.0456
RRIRHRPPRLPRPRPRPMWMPRP	-0.000946
RRIRYRPPRLPRPRPRPKYIPRP	-0.665
RRIRVRPPRLPRPRPRPKLMPRP	-0.203
RRIRHRPPRLPRPRPRPLWHPRP	-0.138
RRIRKRPPRLPRPRPRPPANPRP	0.48
RRIRWRPPRLPRPRPRPDPYPRP	-0.198
RRIRDRPPRLPRPRPRPDWPPRP	-0.0123
RRIRCRPPRLPRPRPRPLWKPRP	0.101
RRIRLRPPRLPRPRPRPVRPPRP	-0.0457
RRIRIRPPRLPRPRPRPFGCPRP	-0.742
RRIRCRPPRLPRPRPRPTTGPRP	-0.0721
RRIRARPPRLPRPRPRPHYVPRP	-0.255
RRIRGRPPRLPRPRPRPENIPRP	0.204

Sequence	shrunken log2 fold change
RRIRFRPPRLPRPRPRPIIPPRP	-0.677
RRIRVRPPRLPRPRPRPDKLPRP	-0.0511
RRIRGRPPRLPRPRPRPVYVPRP	0.0272
RRIRERPPRLPRPRPRPWIQPRP	-0.0122
RRIRTRPPRLPRPRPRPAFSPRP	0.193
RRIRGRPPRLPRPRPRPPWTPRP	0.68
RRIRMRPPRLPRPRPRPAMWPRP	0.511
RRIRLRPPRLPRPRPRPALKPRP	0.489
RRIRMRPPRLPRPRPRPEYHPRP	-0.00495
RRIRCRPPRLPRPRPRPIFMPRP	-0.269
RRIRCRPPRLPRPRPRPENLPRP	-0.0208
RRIRGRPPRLPRPRPRPPRCPRP	0.951
RRIRYRPPRLPRPRPRPGITPRP	-0.444
RRIRMRPPRLPRPRPRPTRMPRP	0.685
RRIRGRPPRLPRPRPRPNTRPRP	0.528
RRIRLRPPRLPRPRPRPRRCPRP	0.356
RRIRIRPPRLPRPRPRPYQEPRP	0.0173
RRIRCRPPRLPRPRPRPVYAPRP	-0.515
RRIRERPPRLPRPRPRPPTGPRP	0.161
RRIRVRPPRLPRPRPRPTLKPRP	0.151

Sequence	shrunken log2 fold change
RRIRQRPPRLPRPRPRPQQQPRP	-0.0448
RRIRKRPPRLPRPRPRPLTHPRP	0.0737
RRIRLRPPRLPRPRPRPQRPPRP	0.265
RRIRRRPPRLPRPRPRPRYIPRP	-0.12
RRIRPRPPRLPRPRPRPFYVPRP	-0.459
RRIRWRPPRLPRPRPRPARYPRP	-0.0422
RRIRWRPPRLPRPRPRPQAAPRP	0.702
RRIRIRPPRLPRPRPRPGRTPRP	0.0928
RRIRRRPPRLPRPRPRPDSVPRP	7.52e-05
RRIRWRPPRLPRPRPRPGWSPRP	0.221
RRIRSRPPRLPRPRPRPYCVPRP	-0.912
RRIRHRPPRLPRPRPRPEANPRP	0.00386
RRIRIRPPRLPRPRPRPFEAPRP	-0.151
RRIRPRPPRLPRPRPRPRTCPRP	0.322
RRIRIRPPRLPRPRPRPILKPRP	0.134
RRIRWRPPRLPRPRPRPCRIPRP	-0.113
RRIRWRPPRLPRPRPRPVFEPRP	0.333
RRIRHRPPRLPRPRPRPAWNPRP	0.287
RRIRARPPRLPRPRPRPWHTPRP	-0.219
RRIRPRPPRLPRPRPRPCLLPRP	-0.258
